From patent US20210138049A1
Values joined by “and” are separate entries in the source; they are usually repeats but may differ in a detail not shown here. Equal entries are not always repeated.

Legend:
β-Syn (103-134) peptide = assay: peptide ELISA, serum, 0 w
[1] = biological target: α-Synuclein 91-140 peptide (human); assay: peptide ELISA, serum, 0 w

Substance: preimmune guinea pig serum / antibodies purified from preimmune serum of naïve guinea pigs (antibody)
- ELISA Log10 Titer (β-Syn (103-134) peptide): 0.1 Log10 titer
- ELISA Log10 Titer [1]: 0.1 Log10 titer and 0.2 Log10 titer and 0.3 Log10 titer
